# Legend:
# Test in all cases: cell-based or functional assay
# [1] = target: hemagglutinin of A/Common iora/Indonesia/F89/H7N1 (influenza A virus A/Common iora/Indonesia/F89 (H7N1))
# [2] = target: hemagglutinin of A/Indonesia/CDC669/2006 (H5N1, clade 2.1) (influenza A virus A/Indonesia/CDC669/2006 (H5N1))
# [3] = target: hemagglutinin of A/Indonesia/TLL013/2006 (H5N1, clade 2.1) (influenza A virus A/Indonesia/TLL013/2006 (H5N1))
# [4] = target: hemagglutinin of A/Indonesia/TLL014/2006 (H5N1, clade 2.1) (influenza A virus A/Indonesia/TLL014/2006 (H5N1))
# [5] = target: hemagglutinin of A/chicken/Singapore/Sg02 H3N2 (influenza A virus A/chicken/Singapore/Sg02 (H3N2))
binder,measurement,setting,value
"murine monoclonal antibody 4C2 (antibody, V domains shown) VH: QESGAELVRPGASVKLSCKDSGYTFTTYWMNWVKQRPEQGLEWIGRIDPYDSETHYNQKFKDKAILTVDKSSNTAYMQLSSLTSEDSAVYYCVRGGSTVAYFGVWGQG VL: MTQSPSSMSVSLGDTVSITCHASQDISGHIGWLQQKPGKSFKGLIYHGTNLEDGVPSRFSGSGSGADFSLTISSLESEDFADYYCVQYVQFPWTFGGGTK",HI titer (titer (mAb at 1 mg/ml)),[1],< 4
same,Microneutralization titers against H5N1 strains,[1],< 10
same,HI titer (titer (mAb at 1 mg/ml)),[2],512
same,Microneutralization titers against H5N1 strains,[2],320
same,HI titer (titer (mAb at 1 mg/ml)),[3],512
same,Microneutralization titers against H5N1 strains,[3],640
same,HI titer (titer (mAb at 1 mg/ml)),[4],512
same,Microneutralization titers against H5N1 strains,[4],320
same,HI titer (titer (mAb at 1 mg/ml)),[5],< 4
same,Microneutralization titers against H5N1 strains,[5],< 10

# From patent US20130202608A1
